Source: doi:10.1101/2022.11.15.516577
Where two headings read alike, the source gives them in different places.

Tests used:
Assay in all cases: single-molecule TIRF colocalisation with deconvolution of colocalisation times
[1] = molecular target: N-terminally SNAP-tagged human β2AR carrying the vasopressin V2 receptor C-tail (SNAP-β2V2)
[2] = molecular target: N-terminally SNAP-tagged human β2AR carrying the vasopressin V2 receptor C-tail (SNAP-β2V2); remark: listed apart in the source
[3] = molecular target: N-terminally SNAP-tagged human β2AR carrying the vasopressin V2 receptor C-tail (SNAP-β2V2); remark: listed apart in the source

Measured: average interaction time

C-terminally Halo-tagged bovine β-arrestin 2 (βArr2-Halo) (from UniProt P32120-2 1-409) (natural protein)
1 s: all assays above
